Experiment [1] deals with light-harvesting complex II (LHCII) trimer (spinach).
Experiment [2] shares this target. This is another data set of the same source.

This passage reports pairwise LHCII-LHCII interaction energy J results from paper PMC10745693.

Like-named read-outs stand apart in the source and are kept apart here.

Turning to “light-harvesting complex II (LHCII) trimer”, the pairwise LHCII-LHCII interaction energy J was -7.2 kBT in experiment [1] and -5.4 kBT in experiment [2].
